Test results from article PMC11933697 (Nature Communications, 2025).
Where two headings read alike, the source gives them in different places.

Assays:
Assay in all cases: ITC
hMED25 ACID (389-543) [1] = molecular target: T1, hMED25 ACID (389-543) (human, UniProt Q71SY5 389-543)
T1 sequence (looked up): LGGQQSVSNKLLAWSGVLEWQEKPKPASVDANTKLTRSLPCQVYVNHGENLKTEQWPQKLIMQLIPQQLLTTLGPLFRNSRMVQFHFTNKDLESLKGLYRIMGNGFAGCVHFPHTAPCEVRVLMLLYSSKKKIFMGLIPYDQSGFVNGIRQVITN

MED25 ACID I541A/T542A = molecular target: T2, MED25 ACID I541A/T542A (human, UniProt Q71SY5 389-543, I541A | T542A)
T2 sequence (looked up): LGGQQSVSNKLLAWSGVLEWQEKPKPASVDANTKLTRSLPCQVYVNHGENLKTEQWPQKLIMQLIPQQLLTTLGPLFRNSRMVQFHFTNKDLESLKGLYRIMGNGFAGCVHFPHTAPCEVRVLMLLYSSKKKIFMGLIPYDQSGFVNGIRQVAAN

MED25 ACID I537A/R538A = molecular target: T3, MED25 ACID I537A/R538A (human, UniProt Q71SY5 389-543, I537A | R538A)
T3 sequence (looked up): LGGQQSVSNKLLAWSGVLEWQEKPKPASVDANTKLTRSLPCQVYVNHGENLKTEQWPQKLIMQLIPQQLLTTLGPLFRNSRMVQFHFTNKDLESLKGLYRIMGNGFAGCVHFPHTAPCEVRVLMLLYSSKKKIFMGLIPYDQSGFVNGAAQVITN

NS1/MED25 ACID complex = molecular target: T4, NS1/MED25 ACID complex (human respiratory syncytial virus …, UniProt P0DOE9 1-139; Q71SY5 389-543)
T4 sequence (looked up) 1: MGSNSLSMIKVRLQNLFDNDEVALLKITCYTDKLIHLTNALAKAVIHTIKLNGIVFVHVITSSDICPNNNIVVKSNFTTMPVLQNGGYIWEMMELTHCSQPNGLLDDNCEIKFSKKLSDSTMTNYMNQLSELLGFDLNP
T4 sequence (looked up) 2: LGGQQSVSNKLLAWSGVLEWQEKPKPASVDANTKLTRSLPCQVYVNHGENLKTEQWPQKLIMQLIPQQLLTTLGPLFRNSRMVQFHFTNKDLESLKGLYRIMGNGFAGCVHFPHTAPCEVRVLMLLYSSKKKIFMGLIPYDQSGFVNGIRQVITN

hMED25 ACID (389-543) [2] = molecular target: T1, hMED25 ACID (389-543); remark: listed apart in the source

B1: NS1 E110A (natural protein, human respiratory syncytial virus (hRSV), UniProt P0DOE9 1-139, looked up)
chain: MGSNSLSMIKVRLQNLFDNDEVALLKITCYTDKLIHLTNALAKAVIHTIKLNGIVFVHVITSSDICPNNNIVVKSNFTTMPVLQNGGYIWEMMELTHCSQPNGLLDDNCAIKFSKKLSDSTMTNYMNQLSELLGFDLNP
hMED25 ACID (389-543) [1]
  Kd: 1740 ± 370 nM

B2: NS1 N85A (natural protein, human respiratory syncytial virus (hRSV), UniProt P0DOE9 1-139, looked up)
chain: MGSNSLSMIKVRLQNLFDNDEVALLKITCYTDKLIHLTNALAKAVIHTIKLNGIVFVHVITSSDICPNNNIVVKSNFTTMPVLQAGGYIWEMMELTHCSQPNGLLDDNCEIKFSKKLSDSTMTNYMNQLSELLGFDLNP
hMED25 ACID (389-543) [1]
  Kd: 41 ± 8 nM

B3: NS1 Y125A (natural protein, human respiratory syncytial virus (hRSV), UniProt P0DOE9 1-139, looked up)
chain: MGSNSLSMIKVRLQNLFDNDEVALLKITCYTDKLIHLTNALAKAVIHTIKLNGIVFVHVITSSDICPNNNIVVKSNFTTMPVLQNGGYIWEMMELTHCSQPNGLLDDNCEIKFSKKLSDSTMTNAMNQLSELLGFDLNP
hMED25 ACID (389-543) [1]
  Kd: 182 ± 20 nM

B4: NS1 ΔDLNP (domain or fragment, human respiratory syncytial virus (hRSV), UniProt P0DOE9 1-135, looked up)
chain: MGSNSLSMIKVRLQNLFDNDEVALLKITCYTDKLIHLTNALAKAVIHTIKLNGIVFVHVITSSDICPNNNIVVKSNFTTMPVLQNGGYIWEMMELTHCSQPNGLLDDNCEIKFSKKLSDSTMTNYMNQLSELLGF
hMED25 ACID (389-543) [1]
  binding result: binds

B5: hRSV NS1 (1-139) (natural protein, human respiratory syncytial virus (hRSV), UniProt P0DOE9 1-139, looked up)
chain: MGSNSLSMIKVRLQNLFDNDEVALLKITCYTDKLIHLTNALAKAVIHTIKLNGIVFVHVITSSDICPNNNIVVKSNFTTMPVLQNGGYIWEMMELTHCSQPNGLLDDNCEIKFSKKLSDSTMTNYMNQLSELLGFDLNP
MED25 ACID I541A/T542A
  Kd: 116 ± 30 nM
hMED25 ACID (389-543) [1]
  Kd: 41 ± 5 nM
MED25 ACID I537A/R538A
  Kd: 82 ± 10 nM

B6: hATF3 bZIP (88-149) (domain or fragment, human, UniProt P18847 88-149, looked up)
chain: RKKRRRERNKIAAAKCRNKKKEKTECLQKESEKLESVNAELKAQIEELKNEKQHLIYMLNLH
NS1/MED25 ACID complex
  Kd: 3080 ± 1320 nM
hMED25 ACID (389-543) [2]
  Kd: 1290 ± 321 nM
